Positions count from the first letter of the chain named. One block for each binder: values may come before it. Where no end group is shown, it is not given here.
Key:
Conditions in all cases: both partners purified
[1] = target: T1, MRG15 MRG domain, amino acids 155-323 (UniProt Q9UBU8-2 155-323); assay: pull-down; His-tagged PALB2 peptide (0.1 mg/mL) bound to Ni-NTA beads, MRG15 155-323 (0.1 mg/mL) added for 30 min; Buffer B (25 mM HEPES pH 7.5, 10% glycerol, 2 mM CHAPS, 300 mM NaCl), washes with 20 mM imidazole, elution with 250 mM imidazole, SDS-PAGE
T1 construct: MRG15 (Morf-related gene on chromosome 15), MRG domain, amino acids 155-323; Cloned into the pET28b+-based pSMT3 vector; also called MRG15^155-323; MRG15 fragment; source: E. coli BL21*, purified (Ni-NTA, SUMO tag cleaved with Ulp1, second Ni-NTA flowthrough); not shown: 6xHis, N-terminal, cleaved; SUMO, N-terminal, cleaved
T1 sequence (Q9UBU8 194-362): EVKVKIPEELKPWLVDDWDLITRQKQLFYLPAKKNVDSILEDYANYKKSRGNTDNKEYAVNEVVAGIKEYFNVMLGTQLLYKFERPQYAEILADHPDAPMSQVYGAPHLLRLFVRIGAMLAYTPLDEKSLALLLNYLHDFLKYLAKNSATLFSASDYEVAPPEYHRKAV

[2] = target: T1, MRG15 MRG domain, amino acids 155-323; assay: fluorescence polarisation; fluorescence anisotropy competition; mutant PALB2 597-630 peptides serially diluted from 10 uM to 0.6 nM against a preformed complex of MRG15 and FAM-PALB2; 25 mM HEPES pH 8.0, 1 mM TCEP, 10% DMSO, 200 mM NaCl; room temperature
[3] = target: T1, MRG15 MRG domain, amino acids 155-323; assay: fluorescence polarisation; fluorescence anisotropy; MRG15 fragment serially diluted from 10 uM to 0.6 nM against 10 nM FAM-PALB2 597-630; 25 mM HEPES pH 8.0, 1 mM TCEP, 10% DMSO, 200 mM NaCl; four-parameter logistic fit, EC50 taken as Kd

B1: 6xHis-PALB2^597-630 (peptide, UniProt Q86YC2 597-630, looked up)
chain: MLSLKQLLSFLSITDFQLPDEDFGPLKLEKVKSC
notes: Cloned into pMCSG7; also called His-tagged PALB2 peptide; source: E. coli BL21*, purified (Ni-NTA from 8 M urea, washed down to 1 M urea); not shown: 6xHis, N-terminal, kept
- binding result [1]: binds

B2: PALB2^597-630 peptide Pro615Ser (peptide, UniProt Q86YC2 597-630, looked up)
peptide: B1 chain with P19S
notes: also called Pro615 to serine; source: synthetic peptide, bought: Genscript Biotech
- fold reduction in binding affinity against the wild-type peptide [2]: 5 fold

B5: PALB2^597-630 peptide Asp616His (peptide, UniProt Q86YC2 597-630, looked up)
peptide: B1 chain with D20H
notes: also called Asp616 with histidine; source: synthetic peptide, bought: Genscript Biotech
- fold reduction in binding affinity against the wild-type peptide [2]: 2 fold

The remaining lines, values ahead:

- Kd [3]: 23.4 ± 5 nM
B3: fluorescein-labeled PALB2^597-630 peptide (peptide, UniProt Q86YC2 597-630, looked up)
peptide: B1 chain
modifications: also: fluorescein (FAM) label, position not given here
notes: also called FAM-PALB2; source: synthetic peptide, bought: Genscript Biotech

- binding result [2]: binds
B4: PALB2^597-630 peptide Pro621Thr (peptide, UniProt Q86YC2 597-630, looked up)
peptide: B1 chain with P25T
notes: also called Pro621 by threonine; source: synthetic peptide, bought: Genscript Biotech

Reference: PMC8701324, “Structural Insight into the Mechanism of PALB2 Interaction with MRG15” (Genes, 2021)
